Results as given in patent publication US10618964B2, “Nanobody against IL-6R” (Ablynx N.V., dated 2020).

How the values were obtained:
[1] = biological target: soluble IL-6R in cynomolgous plasma (cynomolgus monkey, UniProt A0A2K5WN54); test: ELISA 2, periplasmic extract; competitor IL-6; cyno plasma
Protocol: (§1) In this ELISA, plasma was used as a source of native soluble IL-6R. By this assay, we aimed to confirm the alphascreen results and to get a view on the cross-reactivity of the clones towards cynomolgous IL-6R. Human plasma (ELISA 1 and ELISA 3) or cynomolgous plasma (ELISA 2) were pre-incubated with a dilution of the periplasmic extract of the clones together with human IL-6 (50 ng/mL). Subsequently, plasma soluble IL-6R was captured on a B-N12 coated plate and bound IL-6 was detected using anti-IL-6 antibody BAF206 and streptavidin-HRP (ELISA 1 and ELISA 2). The ELISA signal dropped when the Nanobody clone could compete with IL-6 for binding to soluble IL-6R. ELISA 3 was a parallel ELISA in which the detection antibody was replaced by anti-IL-6R antibody BAF227 to exclude false positive competitors, which actually compete with B-N12 (e.g. family 2). Depicted in Table C-5 is the ratio of the OD450 value of the test sample versus the blank OD450 (mock sample). Clones were ordered based on ELISA 1 data.

[2] = biological target: T1, native soluble IL-6R in human plasma (human, UniProt P08887); test: ELISA 1, periplasmic extract; competitor IL-6; human plasma
Protocol: as §1

[3] = biological target: T1, native soluble IL-6R in human plasma; test: ELISA 3, periplasmic extract; competitor BN-12; human plasma
Protocol: as §1

| Binder | OD450 ratio sample/blank [1] | OD450 ratio sample/blank [2] | OD450 ratio sample/blank [3] |
| --- | --- | --- | --- |
| IL6RPMP105E11 (VHH) VHH: EVQLVESGGGLVQAGGSLRLSCAASGFAFDDYAIGWFRQAPGKEREGVSSISSSNGNTYYADSVRGRFTISSDNAKNTVYLQMNGLKPEDTGVYYCAAIWGIFFNEKMPVGAYDYWGQGTQVTVSS | 0.691 | 0.679 | 0.971 |
| IL6RPMP101H3 (VHH) VHH: EVQLVESGGGLVQAGGSLRLSCAASGFAFDDYAIGWFRQAPGKEREGVSSISSSNGNTYYADSVRGRFTISSDNAKNTVYLQMNSLKPEDTGVYYCAAIWGIFFNEKMPVGAYDYWGQGTQVTVSS | 0.859 | 0.772 | 0.954 |
| IL6RPMP101F1 (VHH) VHH: EVQLVESGGGLVQAGGSLRLSCAASGFAFDDYAIGWFRQAPGKEREGVSSISSSNGNTYYADSVRGRFTISSDNAKNTVYLQMNSLKPEDTGVYYCAAIWGIFFNEKMPVGAYDYWGQGTQVTVSS | 0.829 | 0.754 | 0.957 |
| IL6RPMP101F3 (VHH) VHH: EVQLVESGGGLVQAGGSLRLSCAASGFAFDDYAIGWFRQAPGKEREGVSSISSSNGNTYYADSVRGRFTISSDNAKNTVYLQMNSLKPEDTGVYYCAAIWGIFFNEKMPVGAYDYWGQGTQVTVSS | 0.822 | 0.758 | 0.984 |
| IL6RPMP105B8 (VHH) VHH: EVQLVESGGGLVRAGGSLRLSCAASGFAFDDYAIGWFRQAPGKEREGVSSISSSNGNTYYADSVRGRFTISSDNAKNTVYLQMNSLKPEDTGVYYCAAIWGIFFNEKMPVGAYDYWGQGTQVTVSS | 0.816 | 0.808 | 1.03 |
| IL6RPMP107H2 (VHH) VHH: KVQLVESGGGLVQPGGSLRLSCAASGFTFSSYAMSWVRRAPGKGLEWVSAINSDGTGSSYAPFVTGRFTASRDNAKNTLYLQMNSLKPEDTAVYYCTNSNRYDYADFSAVRGQGTQVTVSS | 0.6 | 0.865 | 0.962 |
| IL6RPMP101A4 (VHH) VHH: EVQLVESGGGTVQAGGSLKLSCAASGRTFTNYAMGWFRQAPGKEREFVAAIAYATHFADSVKGRFTISRGNAKNTVYLQMNSLKPEDAAVYYCAADLSLSKMVSKITSDMDYWGKGTLVTVSS | 0.713 | 0.792 | 0.99 |
| IL6RPMP120B7 (VHH) VHH: EVQLVESGGGLVQAGGSLSLSCATSGRTISDDTMAWFRQAPGKEREFVATITFSGARTHYSDSVRDRFTISRDNAKNTVYLQMNSLKSEDTAVYYCAASTKYYSSTYNYIHPAFYDIWGQGTQVTVSS | 0.299 | 0.714 | 1.03 |
| IL6RPMP101H6 (VHH) VHH: EMQLVESGGGLVQAGGSLRLSCTASGRTFTDYDMGWFRQAPGKEREVVAIIDTNGDNTLTVGSVKGRFAISSDNAKNTVYLQMNSLLPEDTAVYTCAAGAWSALRRSVANYWGQGTQVTVSS | 0.713 | 0.788 | 0.954 |
| IL6RPMP101A5 (VHH) VHH: EVQLVESGGGLVQAGGSLRLSCTASGRTFSDYDMGWFRQAPGKERECVAIIDTNGDNTLIVGSVKGRFAISSDNAKNTVYLQMNSLLPEDTAVYTCAAGVWSSLRHTAANYWGQGTQVTVSS | 0.736 | 1.03 | 0.95 |
| IL6RPMP101C2 (VHH) VHH: EVQLVESGGGLVQAGGSLRLSCTASGRTFSDYDMGWFRQAPGKERECVAIIDTNGDNTLIVGSVKGRFAISSDNAKNTVYLQMNSLLPEDTAVYTCAAGVWSSLRHTAANYWGQGTQVTVSS | 1.03 | 1.04 | 0.952 |

Second part, the binder after the results:

| OD450 ratio sample/blank [1] | OD450 ratio sample/blank [2] | OD450 ratio sample/blank [3] | Binder |
| --- | --- | --- | --- |
| 0.822 | 0.124 | 0.977 | IL6RPMP101D2 (VHH) VHH: EVQMVESGGGLVQAGGSLRLSCAASGFAFDDYAIGWFRQAPGKEREGVSSISSSNGNTYYADSVRGRFTISSDNAKNTVYLQMNSLKPEDAGVYYCAAIWGIFFNEKMPVGAYDYWGQGTQVTVSS |
| 0.805 | 0.716 | 0.947 | IL6RPMP101E1 (VHH) VHH: EVQLVESGGGLVQAGGSLRLSCAASGFAFDDYAIGWFRQAPGKEREGVSSISSSNGNTYYADSVRGRFTISSDNAKNTVYLQMNSLKPEDTGVYYCAAIWGIFFNEKMPVGAYDYWGQGTQVTVSS |
| 0.815 | 0.796 | 1.02 | IL6RPMP101G4 (VHH) VHH: EVQLVESGGGLVQAGGSLRLSCAASGFAFDDYAIGWFRQAPGKEREGVSSISSSNGNTYYADSVRGRFTISSDNAKNTVYLQMNSLKPEDTGVYYCAAIWGIFFNEKMPVGAYDYWGQGTQVTVSS |
| 0.722 | 0.948 | 0.923 | IL6RPMP100A6 (VHH) VHH: EVQLVESGGGLVQAGDSLRLSCLASGRSFKDDAMGWFRQAPGKEREFVSGIDWRGNIVDAESVKGRFTISRENAKNTLYLQMNHLKPEDTAVYYCAASSVFSDLRYRKNPKYWGQGTQVTVSS |
| 0.296 | 0.673 | 0.988 | IL6RPMP120C11 (VHH) VHH: EVQLVESGGGLVQAGGSLSLSCATSGRTISDDTMAWFRQAPGKEREFVATITFSGARTHYSDSVRDRFTISRDNAKNTVYLQMNSLKSEDTAVYYCAASTKYYSSTYNYIHPAFYDIWGQGTQVTVSS |
| 0.345 | 0.0624 | 0.916 | IL6RPMP108D2 (VHH) VHH: EVQLVESGGGLVQAGGSLRLSCAASGFTFDDYDIGWFRQAPGKEREGVSGISSSDGNTYYADSVKGRFTISSDNAKNTVYLQMNSLKPEDTAVYYCAAEPPDSSWYLDGSPEFFKYWGQGTQVTVSS |
| 1.02 | 0.99 | 0.984 | IL6RPMP106B2 (VHH) VHH: EVQLVESGGGLVQAGGSLRLSCAASGSIFRINAMGWYRQAPGKQRELVAAAISGGSTNYADFVKGRFTISRDNAKNTVYLQMNSLKPEDTAVYYCNALVVSHNYSDYVPFPDDYWGQGTQVTVSS |
| 0.79 | 0.87 | 1.04 | IL6RPMP108D1 (VHH) VHH: EVQLVESGGGLVQAGGSLRLSCTASGRTFSDYDMGWFRQAPGKERECVAVIDTNGDNTLTVGSVKGRFAISRDNAKNTVYLQMNSLLPEDTAVYTCAAGAWSSLRSTAANYWGQGTKVTVSS |
| 0.79 | 0.812 | 0.928 | IL6RPMP101D1 (VHH) VHH: EVQLVESGGGLVQAGGSLRLSCTASGRTFSDYDMGWFRQAPGKERECVAIIDTNGDNTLIVGSVKGRFAISSDNAKNTVYLQMNSLLPEDTAVYTCAAGVWSSLRHTAANYWGQGTQVTVSS |
| 0.761 | 0.961 | 1.03 | IL6RPMP108D10 (VHH) VHH: EVQLVESGGGSVQAGGSLRLSCTASGRTFSDYDMGWFRQAPGKERECVAVIDTNGDNTLTVGSVKGRFAISRDNAKNTVYLQMNSLLPEDTAVYTCAAGAWSSLRSTAANYWGQGTQVTVSS |
| 0.189 | 0.748 | 0.97 | IL6RPMP100A10 (VHH) VHH: EVQLVESGGGLVQAGGSLRLSCAASGRGFSPYTMGWFRQAPGKERVFVAGISWSTGIAHYTDSVKGRFTISRDNAKNTGSLQMNSLKPEDTAVYYCAVVQTTKGNYDYWGQGTQVTVSS |
| 0.997 | 0.901 | 1.03 | IL6RPMP107H5 (VHH) VHH: EVPLVESGGGLVQAGGSLNLSCNASGDIGSINAMGWYRQAPGQQREWVAVITDTDSTIYPDSVKGRFAISRDGAKNTVHLRMSSLKPEDTAVYYCNAYQAGWGDYWGQGTQVTVSS |
| 0.249 | 0.877 | 0.989 | IL6RPMP119A10 (VHH) VHH: EVQLVESGGGLVQPGGSLRLSCAASKSIFDINAMYWHRQAPGKQRESVASITSGGMRNYADSVKDRFTISKDNAKNTVYLQMNGLKPDDTAVYYCGLGRYEGGVWRDYWGQGTQVTVSS |
